The target of the data set is T1, SlyA (Shigella flexneri serotype 2a 2457T) (UniProt P0A8W4).
T1 sequence: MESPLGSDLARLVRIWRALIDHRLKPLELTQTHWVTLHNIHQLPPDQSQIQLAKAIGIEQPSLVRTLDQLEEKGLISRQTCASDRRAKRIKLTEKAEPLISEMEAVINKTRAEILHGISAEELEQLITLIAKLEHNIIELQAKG
The experiment in a line: EMSA. Conditions: 10 mM Tris-HCl pH 7.5, 100 mM KCl, 1 mM EDTA, 0.1 mM DTT, 5% glycerol, 10 ug/mL BSA, room temperature 30 min. In general terms: In EMSA bound probe runs differently from free probe, usually more slowly.

Turning to “CAGTCTGAACGGGGTGTACACGCCGTATATGCAGGATAAACAATAATTAATTTGATCGCCCGAACAGGAATGTTTGGGCGATTTTTATTACGATAATAAAGTCTGTTTTTAATATTATCATGTTAAATGTTTATATTATAAAAAGTCGTTTTTCTGCTTAGGATTTTGTTATTTAAATTAAGCCTGTAATGCCTTGCTTCCATTGCGGATAAATCCTACTTTTTTATTGCCTTCAAATAAATTTAAGGAGTTCGAAATGGACCAGAAGCTGTTAACGGATTTCCGCTCAG (double strand) [PgadA]”, the binding entry is recorded as “binds”.
